Assay results taken from the nanobody polyreactivity screen of Harvey et al. (2022).

Experiment: yeast display, Sf9 membrane polyspecificity reagent, FACS + sequencing; frameworks hold sequencing errors
Outline: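 Polyreactivity labels are assigned by the sorting gate from which each nanobody was recovered. The gates were low and high (top ~1%), set on anti-HA fluorescence for expression and streptavidin fluorescence for reagent binding. Before sorting, galactose-induced (36–48 hours) yeast display cells were stained for 1 hour at 4 °C with 10% biotinylated, detergent-solubilized Sf9 membrane reagent.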

| Sequence | polyreactivity (PSR sort gate) |
| --- | --- |
| QVQLQESGGGLVQAGGSLRLSCAASGTIFRISDMGSYRQAPGKEREFVAAITYGANTYYADSGKGRFTISRDNAKNTVYLQMNSLIPEDTAVYYCAVPPVKETILDYWGQGTQVTVSC | low polyreactivity |
| QVQLQESGGGLVQAGGSLRLSCAASGTILYSLGMGWYRQAPGKRREFVASITWGTTTNYAESVKGRFTISRDNAKNTVYPQMNSLKPDVTAVYDCAAPPFGDSSYHYWGQGTQVTVSS | low polyreactivity |
| QVQLQESGGGLVQAGGSLRLSCAASGTISPLPAMAWYRQAPGKEREFVAGIDTGAITNYADSVKGRFTISRANAKNTVYLQMNSLIPEDTAVYYCAVFPAAYDYYERYYTYWGQGTQVTVSS | low polyreactivity |
| QVQLQESGGGLVQAGGSLRLSCAASGTISPLPAMGWYRQAPGKEREFVAGIDTGAITNYADSVKGRFTISRDNAKNTVYLQMNSLIPEDTAVYYCAVFPAAYDYYERYYTYWGQGTQVTVSS | low polyreactivity |
| QVQLQESGGGLVQAGGSLRLSCAASGTISSSDAMGWYRQAPGKEREFVATIASGTTTYYADSVKGSFTISRDNAENSVYLQTNSLKPEDTAVYYCAAPTIQIYPFYYWGQGTQVTVSS | high polyreactivity |
| QVQLQESGGGLVQAGGSLRLSCAASGTISVHASMGWYRQAPGKERELVAGITDGANTYYADSVKGRFTISRDNSKNTVYLQMNSLKPEVTAVYYCAAYYGTEVHFTYWGLGTQVTVSS | low polyreactivity |
| QVQLQESGGGLVQAGGSLRLSCAASGTIYWLWAMGWYCLAPGKERELVASISSGGTTYHADSVKGRFTISRDNAKYSVYLQMNSLKPEDTAVFYSAAFYVASAKLGYWGQGSQVTVSS | low polyreactivity |
| QVQLQESGGGLVQAGGSLRLSCAASGTLSPLPAMGWYRQAPGKEREFVPGIDTGAITNYADSLKGRFTISRDNAKYTVYLQMNSLKPEDTAVYYCAVFPAAYLYYERYDTYWGQGTQVTVSS | low polyreactivity |
| QVQLQESGGGLVQAGGSLRLSCAASGYISHADEMGWYRQAPGKEHELVASISNGGSTNYADSVKGRFTISRDNAKNTVYLQMNSLKSEDTAVYYCAAWTGQVDIHYYWGQGTQETVSS | low polyreactivity |
| QVQLQESGGGLVQAGGSLRLSCAASGYISLAQTIGWYRQAQGKEREFVASIALGSSTYYTDSVKGSFTISRDNAKTTVYLQMNSLKPEDTAVYYCAARVGASYAHDYWGQGTQVTLSS | low polyreactivity |
| QVQLQESGGGLVQAGGSLRLSCAASGYISQSSVMGWYRQAPGKERDFVASISYGATTYYADSVKGRFTISRDNAKNTVYLQTNSPKPEDTAVYYCAVGVKRGFSHRYWGQGTQVTVSS | high polyreactivity |
| QVQLQESGGGLVQAGGSLRLSCAASGYISSWYPMGWYRQAPGKEREFVATIAPGATTYYADSVKGRFTISRDYAKNTVYLQMNSLKPEDTAVYYCAAGPLNNDFYSYWGQGTQVTVSS | low polyreactivity |
| QVQLQESGGGLVQAGGSLRLSCAASGYISTFSSEMGWYRQAPGKERELVASIAPGCTTSYADSVKGRFTISRDNAKNTVYLQMNSLKPEDTAVYYCAVDFTVPASFGYWGQGTQVTVSS | high polyreactivity |
| QVQLQESGGGLVQAGGSLRLSCAASGYISTWYPMGWYRQAPGKEREFVATIAPGATTYYADSVKGRFTISRDYAKNSVYLQMNSLKPEDTAVYYCAAGPENNDFYSYWGQGTQVTVSS | low polyreactivity |
| QVQLQESGGGLVQAGGSLRLSCAGSGYIFPRIYMGWYRQAPGKEREFDAGISYDAITNYADSVKGRFTISLDNAKNTVYLQMNSLKPEDTAVYYCAVSYYGTPLFTYWGQGTQVTVSS | high polyreactivity |
| QVQLQESGGGLVQAGGSLRLSCASSGSISILQSMGWYRQAPGKERELVAGINWGATTYYADSVKGRLTTSRDYAKNTVYLQMNSLKPEDTGVYYCAVPTYYTYPLLYWGQGTQVTVSS | low polyreactivity |
| QVQLQESGGGLVQAGGSLRLSCAVSGTIFFPLDMGWYRQAPGREREYVAAIAEGTSTYYADSVKGRFTISRDNAKNTVYPQMYSLNPEDTAVYYCAAYRSTPQQFHYWGQGTQVTVSS | high polyreactivity |
| QVQLQESGGGLVQAGGSLRLSSAASGPISRRSTMGWYRQAPGKERELVTAITRGTNTNYADSVKGRFTISRDNAMNTEYLQMNSLKPEDTAVYYCAAYGVLKPSRGDAVFHRYWGQGTQVTVSS | low polyreactivity |
| QVQLQESGGGLVQAGGSLRPLCAAGGTIFVSVNMRLYRHAPGEEREFVASITQGATTNYADSLIGRFTISRDNAKNTVYLLMNCQKPEDTEVYYCAVHESGGITFTYWGQGTQVTVSS | high polyreactivity |
| QVQLQESGGGLVQAGGSLRPSCAASGSISDGVRMGWYRQAPGEEGELVATTVLGATTNYADSVKGRFTISRGNAKNTVYLLMTSLKAEATAVYYCAAPLRYDKGFSYWGQGTQVTVSS | low polyreactivity |
| QVQLQESGGGLVQAGGSLRPSCAASGSISDRWWMGLYRQAPGKERESVAGINDGASTYYADSVKGRFTISCDNAKNTVYLQMNSLKPEDTAVYYCAVYVFITGCLNYWGQGTQVTVSS | high polyreactivity |
| QVQLQESGGGLVQAGGSLRPSCAPSGSISDGDPMAWYRQAPGEERELVATTVLGATTNYADSVKGRFTISRGNAENTVYLERYWLKPVETAVYYCAAPLRYDKGFSYWGQGTQVTVSS | low polyreactivity |

| Sequence | polyreactivity (PSR sort gate) |
| --- | --- |
| QVQLQESGGGLVQAGGSLRQSCAASGYIFQPFYMGWYRQAPGKERELVAGISVGGNTYYADSVKGRFTISRDNAKNSVFLQMNSLKPEDTAVYYCAVQFVLQDKYVYWGQGTQVTVSS | low polyreactivity |
| QVQLQESGGGLVQAGGSPRLSCAASDNIFPDSVMCWSRQAPGKERELVATIGFGATTNYADSVKGRFTISRDNAKNTVYLQMNSLKPEDTAVYYCAADPLNYEYFCYWGQGTQVTVSS | low polyreactivity |
| QVQLQESGGGLVQAGGSQRLSCAASGTITVLYKMGRFRQAPGKEREFVASINYGTSTYYADSVKGRFTLSRDSAKNTVYLQMNSLKPEDTAVYYCAAAYRWQDVYRYWGQGTQVTVSS | low polyreactivity |
| QVQLQESGGGLVQAGGSQRLTCAASGYIFYFQYMGWYRPAPGKEREFVAAISDGANTNYADSVKGRFTISRDNAKNTEYLQMNSLKPEDTAVYYCSVYADENYYYIYWGQGTQVTVSS | low polyreactivity |
| QVQLQESGGGLVQAGGTLRLSCQASGSIFVSVTMGWYRQAPGKERELVASIGRGSTTNHADSVKGRFTISRDNAKNIVYLLMNSLKPEDTAVYYCAALESYGKYHGYWGQGTQVTVSS | low polyreactivity |
| QVQLQESGGGMVQAGGSLRLSCAASGYISWADNMAWYRQAPGKERELVAGIGYGSTTYYADSVKGRFTISRDNAKNTAYLQMNSLKPEDTSVYYCAVGWYRDTAYKYWGQGTQVTVSS | low polyreactivity |
| QVQLQESGGGMVQAGGSLRLSRATSGTISATKGMCRYRQAPGKERELVAGINYGGNTNYADNVKGRFTISRDNAKNTVYLQMNSLKPGDTAVYYCAAEPRGVTDLGYWGQGTQVTVSS | low polyreactivity |
| QVQLQESGGGQVQAGGSLRLSCAASGNNSVTGFMGRYRQAPGKERELVASIGIGGTTYYADSVKGRFSISRDNAKNTVYLQMNSLKPEDTAVYYCAARYLYYAYSYWGQGTQVTVSS | low polyreactivity |
| QVQLQESGGGQVQAGGSLRLSCAASGTISDSGLMGWYRQAPGKERELVAGISSGGITNYADSVKGRFTISRDNAKNTVYLQMNILKPEDTAVYWGQGTQVTVSI | low polyreactivity |
| QVQLQESGGGQVQAGGSLRLSCAASGYISTHYFMGWYRQAPGKDREFVAGISNGSITNYADSVKGRFTISRDNARNTVYLQMNSLKPEDTAVYYGAAYDWTYVRFGYWGQGTQVTVSG | high polyreactivity |
| QVQLQESGGGQVQAGGSLRLSCAPSGYISSWYPKGWYRQAPGKEPEFVATIAPGATNYYADSVKGRFTISRDYAKNTVYQQMNSLKPEDTAVYYCAVVSNGRRERYYYWGQGTQVTVSS | low polyreactivity |
| QVQLQESGGGQVQAGGSLRLSCEASGTIFLYAFMGWYRQAPGKERELVAAIDVGTTTNYADSVKGRFTISRDNAKNTVYLQMNSLKPEDTAVYYCAANLGYLDDLGYWGQGTQVTVSS | low polyreactivity |
| QVQLQESGGGQVQAGGSLRPSCAASGSISDRVPMGWYRQAPGEERELVATTVLGATTNYADSVKGRFTISRGNAKNTVYLQMNSLKPEETAVYYCAAPLRYDKGFSYWGEGTQVTVSS | low polyreactivity |
| QVQLQESGGGVQAGGSLRLSCAASGSISAPILMGWYRQAPGKERELVAGIGGGANTYYADSVKGRFTFSRDNAKYTVYLQMYSLKPEDTAVYYCAAGDYYWTNFGYWGQGTQVTASS | high polyreactivity |
| QVQLQESGGLVQAGGLRLSCAASGYVSYQEAMGWYRQAPGKEREIVATISFGANTNYADSVKGRFTISRDNAKNTVYLQMNSLKPEDTAVYYCAAESLFDVYYGYWGQGTQVTVSS | low polyreactivity |
| QVQLQESGGLVQAGGLRLSCEASGSVSYQEGMGWYRQATGKERELVATISFGANTNYADSVKGRFTISRDNAKNTVYLQMNSLKTEDTAVFYCAADSLFDDYYGYWGQGTQVTVSS | low polyreactivity |
| QVQLQESGGRLVQAGGSLRLSCAASGNIFPTVSMGWYRQAPGKDREFVVTIDPGSNTYYADSAKGRFTISRDNAQNTVYLQMNSPKPEDTAVYYCAVVFADWATYGYWGQGTQVTVSS | high polyreactivity |
| QVQLQESGGRLVQAGGSLRLSCAATGTIFTERFMGWYRQAPGKERELVAVISPGTSTNYADSVKGRFTISRDNAKNTVYLQMNSLKPEDTAVYYCAADWSTGNTLPYWGQGTQVTVSS | high polyreactivity |
| QVQLQESGGRLVQSCGTLRLSCAASGTITVLYKIGRFRQAPGKEREFVASINYGTSTYYADSVKGRFTVSRDSAKNTVYLQMNSLKPEDTAVYYCAAAYRWQDVYRYWVQGTQVTVSS | low polyreactivity |
| QVQLQESGGSLVQAGGSLRLSCSASGNILVLPHGLVSPGAERELVATITGGSITYYADSEKGRFTISRDNAKNTVYLQMNSLKPGDTAVYYCAVINIYHRPHPYWGQGTLVTVSS | high polyreactivity |
| QVQLQESGGVLMQAGGNLRLSFPASGYISTHYDMDWYRQAPGKERELVARIDDGAITNYADSVKGRFTISRDNAKNTVYLQMNSLKPEDTAVYYCAVYYGDDYYHDYWGQGTQVTVSS | low polyreactivity |
| QVQLQESGGVQAGGSLRLSCAASGYISRSDVMGWYRQAPGKERELVATINNGTITYYADSVKGRFTISRDNATNTVYLQMNSLKPEDTAVHYCAVVQSDTDSLYYWGQGTQVTVSS | low polyreactivity |
